Results published in patent publication US9505841B2, “Use of an anti-Ang2 antibody” (Samsung Electronics Co., Ltd., priority 2013, dated 2016).

Legend:
[1] = test system: lymphatic endothelial cells; assay: Cell migration assay (xCelligence RTCA); format: cell-based; conditions: 2 ug/ml Ang2 with antibody; slope (1/hr)
Procedure: Also, the measurement of the mobility of lymphatic endothelial cells was conducted using xCelligence RTCA (Realtime cell analyzer; GE Healthcare). The RTCA is a non-invasive cell monitoring system by measuring impedance in real time to identify the change of a cell. To perform a cell migration assay, a CIM-plate16 (GE Healthcare) with a lower chamber and an upper chamber was used wherein microelectrodes for measuring impedance are arranged in the upper chamber and if the cells seeded into the chamber migrate through fine holes, the migration degree of the cells can be identified through their adhesion to the microelectrodes, and it was referred to as migration index. The lymphatic endothelial cells (P5-7; Lonza) which grew up in EGM-2 media (Lonza) were cultured in 1% FBS-added EBM media for 6 hours. 2 ug/ml of Ang2 and antibody 10D6 in 2% FBS-added EBM media were added to each well of the lower chamber of the CIM-plate 16, which was assembled with the upper chamber coated with fibronectin (Sigma). For efficiency comparison, an anti-Ang2 antibody (MedImmune Co.) was used. 30 ul of serum-free EBM media was each added to the upper chamber and then, for equilibration between the plate and media, while being placed in an incubator for 1 hour, the CIM-plate was installed on a device station in the incubator and then, background values were measured. […]

[2] = target: T1, Ang2-Tie2 binding (Homo sapiens, UniProt O15123); assay: Ang2-Tie2 binding competition ELISA; conditions: antibody 400 nM to 0.001 nM; 400 ng/ml FLAG-tagged hAng2; hTie2-Fc coated plate
T1 construct: purchased R&D Systems (hTie2-Fc)
T1 sequence (O15123 19-496): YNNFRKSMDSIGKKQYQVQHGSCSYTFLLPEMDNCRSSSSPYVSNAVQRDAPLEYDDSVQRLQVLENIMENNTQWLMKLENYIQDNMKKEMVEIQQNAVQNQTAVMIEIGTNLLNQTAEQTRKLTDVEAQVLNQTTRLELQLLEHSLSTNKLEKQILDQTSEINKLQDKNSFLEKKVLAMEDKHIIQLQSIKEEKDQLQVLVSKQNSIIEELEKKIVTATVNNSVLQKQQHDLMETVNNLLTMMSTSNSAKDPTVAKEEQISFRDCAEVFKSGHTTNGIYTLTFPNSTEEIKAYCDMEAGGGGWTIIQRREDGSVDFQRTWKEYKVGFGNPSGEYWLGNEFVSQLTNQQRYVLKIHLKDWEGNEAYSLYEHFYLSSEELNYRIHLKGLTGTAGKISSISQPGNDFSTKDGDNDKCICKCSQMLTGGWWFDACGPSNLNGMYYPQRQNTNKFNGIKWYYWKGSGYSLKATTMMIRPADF
Procedure: Ang2-Tie2 binding competition ELISA was conducted using the antibody binding to Ang2 prepared in Example 2-1 above.
More specifically, MaxiSorp™ flat-bottom plate (Nunc) of 96-well was coated with hTie2-Fc (R&D Systems) which is a protein bound with 4 ug (microgram)/ml of Fc of human IgG1. After that, the plate was washed five times with 0.05% (v/v) Tween-20-containing PBS (phosphate buffer saline) and then blocked with 1% (v/v) BSA (bovine serum albumin; Sigma)-containing PBS at a room temperature for 2 hour.
For Ang2:Tie2 competition ELISA, each anti-Ang2 antibody obtained in Example 2 was placed at various concentrations of 400 nM to 0.001 nM into each well coated with the hTie-2/Fc fusion protein along with 1% (v/v) BSA and 400 ng/ml of a FLAG-tagged hAng2 and then, the plate was allowed to react at a room temperature for 2 hours and washed five times with PBST. […] Lastly, 100 ul (microliter) of TMB substrate (Cell Signaling) was added to each well of the plate to induce color development for 3 min. and then, the reaction was ceased by the addition of 100 ul of Stop solution (Cell Signaling) and OD450 values were measured on a plate reader (Molecular Devices). […]

[3] = test system: Tie2 and Akt; assay: In vivo phosphorylation of Tie2 and Akt in mouse lung tissue; conditions: C57BL6 mouse; 5 mg/kg antibody alone or with 20 ug Ang2, tail vein; 1 hour
Procedure: In addition, the phosphorylation of Tie2 receptor and a protein (Akt) which participates in downstream signaling of Tie2 by treating anti-Ang2 antibody was measured in animal model (in vivo). More particularly, 5 mg/kg of antibody was injected alone or together with 20 ug of Ang2 into tail vein of 7-8 week old C57BL6 mouse, and 1 hour after, lung tissue was removed. The obtained lung tissue was subjected to homogenization lysis using lysis buffer (Roche) and FastPrep kit (MP biomedicals). Activities of Tie2 and Akt in the obtained tissue lysate were measured by the above-described method.

[4] = test system: metastasis of lung cancer cells to near lymph nodes; assay: LLC tumor metastasis to inguinal lymph nodes; format: in vivo, mouse; conditions: 10 mg/kg i.p., five administrations, compared to Fc- or 4H10-treated group
Procedure: To see the degree of tumor metastasis to near lymph nodes when treated with antibody 10D6, referring to the method of Example 14, LLC tumor cells were subcutaneously injected into mice. When the size of tumors reached 50˜100 mm^3, anti-Ang2 antibody 10D6 was injected at the concentration of 10 mg/kg via an intraperitoneal injection three times a week and the size of the tumors was measured. After administering the antibody five-times, inguinal lymph nodes were separated, and the obtained tissue sections were immunostained using rabbit anti-LYVE-1 antibody (1:200, Millipore) and mouse pan-Cytokeratin antibody (1;200, Abcam).
For comparison, the same experiment was performed to a control group treated with Fc of IgG1 and a comparative group treated with antibody 4H10 (refer to Example 3).

[5] = test system: blood vessels of normal mice; assay: Vascular toxicity in normal mice; format: in vivo, mouse; conditions: C57BL/6, 5 mg/kg i.p. solely or with 20 ug Ang2, every three days, 6 times
Procedure: The vascular toxicity of antibody 10D6 was tested.
In particular, 5 mg/kg of antibody 10D6 was administered to normal 6-week old C57BL/6 mice (Jackson Laboratory) solely or combined with 20 ug of Ang2 via an intraperitoneal injection every three days a total of 6 times, and then, the weight of the mice was measured. After 20 days, various tissues including thyroid, parathyroid, and adrenal gland were removed from the mice, and frozen sections were obtained therefrom. The frozen sections were immunostained using hamster anti-CD31 antibody (1:200, Millipore), and the changes were observed. A group administered with 20 ug of Ang2 solely was used for comparison.

B1: 10D6: mouse anti-Ang2 monoclonal antibody from hybridoma KCLRF-BP-00295; heavy chain variable region SEQ ID NO: 7, light chain variable region SEQ ID NO: 9 (antibody, V domains shown)
VH: DVQLQESGPGLVKPSQSLSLTCTVTGYSITSDYAWNWIRQFPGNKLEWMGYINYSGNTDYNPSLKSRSSITRDTSKNQFFLQLNSVTTGDTATYYCARGNFEGAMDYWGQGTSVTVSS
VL: SIVMTQTPKFLLVSAGDRVTITCKASQSVSNDVAWYQQKPGQSPKLLIYYASNRYPGVPDRFTGSGYGTDFTFTISTVQAEDLAVYFCQQDYSSPWTFGGGTKLEIK
modifications: Synthetic (Heavy chain variable region of an anti-Ang2 antibody); Synthetic (Light chain variable region of anti-Ang2 antibody)
migration of lymphatic endothelial cells [1]: increased
inhibition of Ang2-Tie2 binding [2]: did not inhibit
phosphorylation of Tie2 and Akt in lung tissue in vivo [3]: considerable effect of phosphorylating Tie2 and a protein, Akt
number of metastatic lung cancer in lymph nodes [4]: decreased
size of lymph nodes [4]: decreased
weight of normal mice [5]: neither abnormal weight loss/gain
vascular toxicity (morphology of blood vessels, CD31 staining) ([5]; after 20 days): no vascular toxicity
